How the values were obtained:
[1] = molecular target: T1, nLuc:cPPARγ; assay: split firefly luciferase complementation in HEK293T cells, ligand dose response (FIG. 2E)
T1 construct: Expressed in HEK293T cells from pcDNA3; also called Myc:gsg:nLuc:gs10:cPPARγ; cSplit of PPARγ CISPA sensor
T1 chain: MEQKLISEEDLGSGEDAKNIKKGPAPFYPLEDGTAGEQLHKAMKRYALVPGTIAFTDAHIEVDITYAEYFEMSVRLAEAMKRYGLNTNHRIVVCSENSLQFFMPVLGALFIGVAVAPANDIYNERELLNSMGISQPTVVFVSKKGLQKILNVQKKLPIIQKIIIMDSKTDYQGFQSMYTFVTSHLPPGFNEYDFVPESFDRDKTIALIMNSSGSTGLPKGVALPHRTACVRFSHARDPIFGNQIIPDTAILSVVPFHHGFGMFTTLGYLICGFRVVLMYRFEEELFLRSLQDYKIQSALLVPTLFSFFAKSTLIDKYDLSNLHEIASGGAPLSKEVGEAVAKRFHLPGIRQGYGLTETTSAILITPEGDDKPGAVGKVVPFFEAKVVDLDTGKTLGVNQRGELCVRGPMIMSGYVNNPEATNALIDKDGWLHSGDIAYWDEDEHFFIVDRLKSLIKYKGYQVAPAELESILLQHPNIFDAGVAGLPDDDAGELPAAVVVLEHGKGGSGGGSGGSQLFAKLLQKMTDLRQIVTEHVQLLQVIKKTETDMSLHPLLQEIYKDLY
Experimental: (§1) 50 ng of each plasmid encoding CISPA sensor pair was transiently co-transfected in HEK293T cells which were 24 h post-transfection stimulated with the indicated ligands. […] Replicates represent HEK293T cell cultures, individually transfected with the same mixture of plasmids. The values represent the mean and standard deviation of replicates within two to three independent experiments (n=4). Data was plotted as a standard dose response curve.
(§2) The fusion constructs were simultaneously expressed in the HEK293T cell line. […] Following this dimerization, the split reporter fragments (nLuc and cLuc) are brought into the proximity, leading to their reconstitution and measurable output signal (emitted light). The plasmids encoding for the CISPA sensors based on split LBDs were transiently transfected into the HEK293T cell line. […]
(§3) Two days after transfection, the cells were harvested and lysed with 25 μl of 1× passive lysis buffer (Promega). Firefly luciferase and Renilla luciferase expression were measured using a dual luciferase assay (Promega) and an Orion II microplate reader (Berthold Technologies). […] Relative luciferase activity (RLU) was calculated by normalizing each sample's firefly luciferase activity to the constitutive Renilla luciferase activity determined within the same sample.

[2] = molecular target: T2, nLuc:cLyn; assay: split firefly luciferase complementation in HEK293T cells, dasatinib dose response (FIG. 3A)
T2 construct: Expressed in HEK293T cells from pcDNA3; also called Myc:gsg:nLuc:gs10:cLyn; cSplit of Lyn CISPA sensor
Experimental: (§4) Cell cultures of HEK293T cells were grown at 37° C. and 5% CO₂. For cultivation, DMEM medium with 10% FBS, containing all the necessary nutrients and growth factors was used. When the cell population reached a sufficient density, the cells were transferred to a new flask and/or diluted. For use in experiments, the number of cells was determined by the Countess automated cell counter (Invitrogen). A 96-well microtiter plate, suitable for growing cell cultures, was inoculated with 2*10⁴ cells per well 24 hours prior to transfection. Inoculated plates were incubated at 37° C. and 5% CO₂. […] Twelve hours after transfection, the cells were stimulated by removing the media and replacing it with media containing selected ligands. Cells were stimulated for 24 hours.
as §3
The plasmids encoding for designed CISPA sensor were transiently co-transfected into HEK293T cell line. […]

[3] = molecular target: T3, nLuc:cGR2; assay: split firefly luciferase complementation in HEK293T cells; dimerization only with cognate ligand
T3 construct: Expressed in HEK293T cells from pcDNA3; also called Myc:gsg:nLuc:gs10:cGR2; cSplit of GR2 CISPA sensor
T3 chain: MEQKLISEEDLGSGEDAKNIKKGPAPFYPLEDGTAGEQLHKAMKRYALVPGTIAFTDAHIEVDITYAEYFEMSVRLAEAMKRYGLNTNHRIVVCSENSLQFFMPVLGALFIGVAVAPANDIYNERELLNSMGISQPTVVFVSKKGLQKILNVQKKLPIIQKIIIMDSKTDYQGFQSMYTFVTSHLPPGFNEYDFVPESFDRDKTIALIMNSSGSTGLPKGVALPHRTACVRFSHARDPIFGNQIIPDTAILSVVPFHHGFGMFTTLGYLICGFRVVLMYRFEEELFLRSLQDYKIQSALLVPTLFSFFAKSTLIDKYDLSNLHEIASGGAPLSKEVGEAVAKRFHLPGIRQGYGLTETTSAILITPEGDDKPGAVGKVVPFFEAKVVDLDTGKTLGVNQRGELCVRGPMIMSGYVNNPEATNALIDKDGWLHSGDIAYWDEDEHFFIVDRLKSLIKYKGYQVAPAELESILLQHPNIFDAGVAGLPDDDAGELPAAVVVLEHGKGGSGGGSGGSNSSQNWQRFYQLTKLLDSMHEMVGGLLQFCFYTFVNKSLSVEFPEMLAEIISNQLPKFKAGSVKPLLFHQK
Experimental: as §1, §2, §3

[4] = molecular target: T4, nLuc:cDHFR (human, UniProt P08659 2-491 = luciferase); assay: split firefly luciferase complementation in HEK293T cells, methotrexate or pralatrexate dose response (FIG. 3B)
T4 construct: Expressed in HEK293T cells from pcDNA3; also called Myc:gsg:nLuc:gs10:cDHFR; cSplit of DHFR CISPA sensor
Experimental: as §4, §3
The plasmids encoding for CISPA sensor was transiently co-transfected into HEK293T cell line. […]

[5] = molecular target: T5, nLuc:cTRβ; assay: split firefly luciferase complementation in HEK293T cells, ligand dose response (FIG. 2D)
T5 construct: also called Myc:gsg:nLuc:gs10:cTRβ; cSplit of TRβ CISPA sensor
T5 chain: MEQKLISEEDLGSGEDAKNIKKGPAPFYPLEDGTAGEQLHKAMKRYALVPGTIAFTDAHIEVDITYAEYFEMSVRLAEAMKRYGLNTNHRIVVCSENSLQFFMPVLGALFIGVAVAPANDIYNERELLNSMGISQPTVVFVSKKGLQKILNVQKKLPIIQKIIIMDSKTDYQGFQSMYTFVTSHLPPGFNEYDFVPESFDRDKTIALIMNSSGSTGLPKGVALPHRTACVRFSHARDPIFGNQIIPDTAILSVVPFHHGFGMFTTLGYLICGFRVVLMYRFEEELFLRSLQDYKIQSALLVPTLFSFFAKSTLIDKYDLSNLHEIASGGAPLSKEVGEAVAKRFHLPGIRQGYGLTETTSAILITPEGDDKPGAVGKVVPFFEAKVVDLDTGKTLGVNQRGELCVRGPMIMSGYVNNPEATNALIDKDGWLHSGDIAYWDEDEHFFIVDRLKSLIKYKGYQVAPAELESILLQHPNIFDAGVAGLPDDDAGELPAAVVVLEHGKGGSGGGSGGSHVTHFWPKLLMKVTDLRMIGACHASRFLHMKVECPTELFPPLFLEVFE

[6] = molecular target: T6, nLuc:cERβ; assay: split firefly luciferase complementation in HEK293T cells, ligand dose response (FIG. 2C)
T6 construct: Expressed in HEK293T cells from pcDNA3; also called Myc:gsg:nLuc:gs10:cERβ; cSplit of ERβ CISPA sensor
T6 chain: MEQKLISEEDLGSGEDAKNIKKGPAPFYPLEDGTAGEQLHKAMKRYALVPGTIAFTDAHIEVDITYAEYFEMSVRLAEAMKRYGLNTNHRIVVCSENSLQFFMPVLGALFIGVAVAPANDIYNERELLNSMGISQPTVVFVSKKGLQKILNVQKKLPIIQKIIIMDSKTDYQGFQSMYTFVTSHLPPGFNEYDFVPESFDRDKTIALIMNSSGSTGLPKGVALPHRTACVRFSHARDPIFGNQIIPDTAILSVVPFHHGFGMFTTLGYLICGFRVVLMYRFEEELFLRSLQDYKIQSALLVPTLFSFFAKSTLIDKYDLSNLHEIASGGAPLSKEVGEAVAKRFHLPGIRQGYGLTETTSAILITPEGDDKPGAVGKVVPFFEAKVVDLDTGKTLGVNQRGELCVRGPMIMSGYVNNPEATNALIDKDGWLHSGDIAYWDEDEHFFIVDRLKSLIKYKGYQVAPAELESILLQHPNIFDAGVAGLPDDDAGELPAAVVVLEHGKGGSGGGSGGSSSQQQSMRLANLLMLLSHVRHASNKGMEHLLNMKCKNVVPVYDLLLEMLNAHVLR
Experimental: as §1, §2, §3

B1: nPPARγ:cLuc (other)
chain: MGSHMLNPESADLRALAKHLYDSYIKSFPLTKAKARAILTGKTTDKSPFVIYDMNSLMMGEDKIKFKHITPLQEQSKEVAIRIFQGCQFRSVEAVQEITEYAKSIPGFVNLDLNDQVTLLKYGVHEIIYTMLASLMNKDGVLISEGQGFMTREFLKSLRKPFGDFMEPKFEFAVKFNALELDDSDLAIFIAVIILSGDRPGLLNVKPIEDIQDNLLQALELQLKLNHPESSGGSGGGSGGSTMTEKEIVDYVASQVTTAKKLRGGVVFVDEVPKGLTGKLDARKIREILIKAKKGGKIAVNSGSGYPYDVPDYA
notes: Expressed in HEK293T cells from pcDNA3; also called nPPARγ:gs10:cLuc:gsg:HA; nSplit of PPARγ CISPA sensor
- binding result [1]: binds

B2: nLyn:cLuc (other)
chain: MAWEIPRESIKLVKRLGAGQFGEVWMGYYNGGSGGGSGGSTMTEKEIVDYVASQVTTAKKLRGGVVFVDEVPKGLTGKLDARKIREILIKAKKGGKIAVNSGSGYPYDVPDYA
notes: Expressed in HEK293T cells from pcDNA3; also called nLyn:gs10:cLuc:gsg:HA; nSplit of Lyn CISPA sensor
- binding result [2]: binds

B3: nGR2:cLuc (other)
chain: MLISLLEVIEPEVLYSGYDSTLPDTSTRLMSTLNRLGGRQVVSAVKWAKALPGFRNLHLDDQMTLLQYSWMSLMAFSLGWRSYKQSNGNMLCFAPDLVINEERMQLPYMYDQCQQMLKISSEFVRLQVSYDEYLCMKVLLLLSTVPKDGLKSQAVFDEIRMTYIKELGKAIVKREGGGSGGGSGGSTMTEKEIVDYVASQVTTAKKLRGGVVFVDEVPKGLTGKLDARKIREILIKAKKGGKIAVNSGSGYPYDVPDYA
notes: Expressed in HEK293T cells from pcDNA3; also called nGR2:gs10:cLuc:gsg:HA; nSplit of GR2 CISPA sensor
- binding result [3]: binds

B4: nDHFR:cLuc (other)
chain: MVGSLNCIVAVSQNMGIGKNGDLPWPPLRNEFRYFQRMTTTSSVEGKQNLVIMGKKTWFSIPEKNRPLKGRINLVLSRELKEPPQGAHFLSRSLDDALKLTEQPELANKVDMVWIVGGSSVYKEAMNHPGHLKLFVTRIMQDFESDTFFPEIDLEKYKLLPEYPGVLSDVQEEKGGSGGGSGGSTMTEKEIVDYVASQVTTAKKLRGGVVFVDEVPKGLTGKLDARKIREILIKAKKGGKIAVNSGSGYPYDVPDYA
notes: Expressed in HEK293T cells from pcDNA3; also called nDHFR:gs10:cLuc:gsg:HA; nSplit of DHFR CISPA sensor
- binding result [4]: binds

B5: nTRβ:cLuc (other)
chain: MHMEELQKSIGHKPEPTDEEWELIKTVTEAHVATNAQGSHWKQKRKFLPEDIGQAPIVNAPEGGKVDLEAFSHFTKIITPAITRVVDFAKKLPMFCELPCEDQIILLKGCCMEIMSLRAAVRYDPESETLTLNGEMAVTRGQLKNGGLGVVSDAIFDLGMSLSSFNLDDTEVALLQAVLLMSSDRPGLACVERIEKYQDSFLLAFEHYINYRKHGGSGGGSGGSTMTEKEIVDYVASQVTTAKKLRGGVVFVDEVPKGLTGKLDARKIREILIKAKKGGKIAVNSGSGYPYDVPDYA
notes: also called nTRβ:gs10:cLuc:gsg:HA; nSplit of TRβ CISPA sensor
- binding result [5]: binds

B6: nERβ:cLuc (other)
chain: MDALSPEQLVLTLLEAEPPHVLISRPSAPFTEASMMMSLTKLADKELVHMISWAKKIPGFVELSLFDQVRLLESCWMEVLMMGLMWRSIDHPGKLIFAPDLVLDRDEGKCVEGILEIFDMLLATTSRFRELKLQHKEYLCVKAMILLNSSMYPLVTATQDADSSRKLAHLLNAVTDALVWVIAKSGIGGSGGGSGGSTMTEKEIVDYVASQVTTAKKLRGGVVFVDEVPKGLTGKLDARKIREILIKAKKGGKIAVNSGSGYPYDVPDYA
notes: Expressed in HEK293T cells from pcDNA3; also called nERβ:gs10:cLuc:gsg:HA; nSplit of ERβ CISPA sensor
- binding result [6]: binds
